From publication PMC7016142, “Tripartite phase separation of two signal effectors with vesicles priming B cell responsiveness” (Nature Communications, 2020)
Positions count from the first letter of the chain named. Numbers in names are those of the source. One block for each binder: values may come before it.

Tests used:
Details in all cases: both partners purified
[1] = biological target: T1, CIN85Δ57 (human, UniProt Q96B97 1-665, deletion of residues 369-425); assay: NMR titration; 15N-HSQC of 15 µM 15N-labeled SLP65_(1-330) with CIN85Δ57 added, without or with SUVs (phase-separated samples); peak intensity ratio over SLP65 only; 293 K; 20 mM HEPES pH 7.2, 100 mM NaCl, 1 mM TCEP
T1 construct: CIN85 (SH3KBP1), human, amplified with primers from the start ATG to the stop codon, residues 369-425 deleted; The tag and its cleavage follow only from 'Protein expression and purification was performed as described above'; also called trimeric CIN85Δ57; source: E. coli, modified pET28a vector, purified as the other constructs; not shown: His7, N-terminal, cleaved

[2] = biological target: T2, CIN85_(1-333) (human, UniProt Q96B97 1-333, 15N-labeled in the PRE experiment; unlabeled in the HSQC titration); assay: NMR titration; 15N-HSQC of 60 µM 15N-labeled SLP65_(1-330) titrated with increasing amounts of unlabeled CIN85_(1-333); 293 K; 20 mM HEPES pH 7.2, 100 mM NaCl, 1 mM TCEP, 0.5 mM Pefabloc
T2 construct: CIN85 (SH3KBP1), human, residues 1-333 with the three N-terminal SH3 domains, lacking the C-terminal coiled coil; also called monomeric CIN85; source: E. coli BL21(DE3), purified (Ni-NTA, TEV cleavage, size exclusion); not shown: His7, N-terminal, cleaved
T2 sequence (looked up): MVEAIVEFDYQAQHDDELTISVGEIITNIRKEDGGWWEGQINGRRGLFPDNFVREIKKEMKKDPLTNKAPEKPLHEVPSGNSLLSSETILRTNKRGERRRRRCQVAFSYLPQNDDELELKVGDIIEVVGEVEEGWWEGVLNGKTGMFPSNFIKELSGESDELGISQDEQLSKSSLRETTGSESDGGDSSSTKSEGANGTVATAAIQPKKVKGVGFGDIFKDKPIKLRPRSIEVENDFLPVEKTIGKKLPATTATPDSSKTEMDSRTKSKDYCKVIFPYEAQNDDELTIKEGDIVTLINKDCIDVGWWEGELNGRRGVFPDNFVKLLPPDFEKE

[3] = biological target: T2, CIN85_(1-333); assay: NMR paramagnetic relaxation enhancement (1H R2-PRE); 15N-labeled CIN85_(1-333) mixed with MTSL-tagged SLP65 constructs at 10:1 molar ratio; TROSY with two-point delay; constructs without MTSL with 1 mM TCEP as diamagnetic reference; 293 K

B1: SLP65_(1-330) (domain or fragment, human, UniProt Q8WV28 1-330, looked up)
chain: MDKLNKITVPASQKLRQLQKMVHDIKNNEGGIMNKIKKLKVKAPPSVPRRDYASESPADEEEQWSDDFDSDYENPDEHSDSEMYVMPAEENADDSYEPPPVEQETRPVHPALPFARGEYIDNRSSQRHSPPFSKTLPSKPSWPSEKARLTSTLPALTALQKPQVPPKPKGLLEDEADYVVPVEDNDENYIHPTESSSPPPEKAPMVNRSTKPNSSTPASPPGTASGRNSGAWETKSPPPAAPSPLPRAGKKPTTPLKTTPVASQQNASSVCEEKPIPAERHRGSSHRQEAVQSPVFPPAQKQIHQKPIPLPRFTEGGNPTVDGPLPSFSS
modifications: 15N-labeled
notes: SLP65 (BLNK), human, residues 1-330 (without the C-terminal SH2 domain); also called BLNK; Src homology (SH) 2 domain-containing leukocyte protein of 65 kDa; source: E. coli BL21(DE3), purified (Ni-NTA, TEV cleavage, size exclusion); not shown: His7, N-terminal, cleaved
- binding result [1]: binds
- binding result [2]: binds

B3: SLP65_(40-330) (C271A, S141C), MTSL-tagged (domain or fragment, human, UniProt Q8WV28 40-330, looked up)
chain: KVKAPPSVPRRDYASESPADEEEQWSDDFDSDYENPDEHSDSEMYVMPAEENADDSYEPPPVEQETRPVHPALPFARGEYIDNRSSQRHSPPFSKTLPSKPCWPSEKARLTSTLPALTALQKPQVPPKPKGLLEDEADYVVPVEDNDENYIHPTESSSPPPEKAPMVNRSTKPNSSTPASPPGTASGRNSGAWETKSPPPAAPSPLPRAGKKPTTPLKTTPVASQQNASSVAEEKPIPAERHRGSSHRQEAVQSPVFPPAQKQIHQKPIPLPRFTEGGNPTVDGPLPSFSS
modifications: nitroxide spin label MTSL on the single cysteine (S141C)
notes: SLP65 (BLNK), human, residues 40-330; also called MTSL-tagged SLP65 constructs; source: E. coli BL21(DE3), purified (Ni-NTA, TEV cleavage, size exclusion); not shown: His7, N-terminal, cleaved
- binding result [3]: binds

B4: SLP65_(40-330) (C271A, Q302C), MTSL-tagged (domain or fragment, human, UniProt Q8WV28 40-330, looked up)
chain: B3 chain with C102S, Q263C
modifications: nitroxide spin label MTSL on the single cysteine (Q302C)
notes: as for B3
- binding result [3]: binds

Next, values leading:

- binding result [3]: binds
B2: SLP65_(40-330), MTSL-tagged at C271 (domain or fragment, human, UniProt Q8WV28 40-330, looked up)
chain: B3 chain with C102S, A232C
modifications: nitroxide spin label MTSL on C271
notes: SLP65 (BLNK), human, residues 40-330, naturally contains a single cysteine (C271); also called MTSL-tagged SLP65 constructs; source: E. coli BL21(DE3), purified (Ni-NTA, TEV cleavage, size exclusion); not shown: His7, N-terminal, cleaved

- binding result [3]: binds
B5: SLP65_(40-330) (C271A, S236C), MTSL-tagged (domain or fragment, human, UniProt Q8WV28 40-330, looked up)
chain: B3 chain with C102S, S197C
modifications: nitroxide spin label MTSL on the single cysteine (S236C)
notes: as for B3
